In the supplement of paper PMC10899765:

What follows are sequences tested on MCF10A (assay: percent viability (nuclei count relative to siNT); higher = more viable cells). Conditions: 20 nM; 72 h.
Procedure: (§1)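 After 72 h, cells were fixed and stained with Hoechst and anti-fibrillarin, and nucleoli per nucleus were counted with CellProfiler. Values are plate-adjusted percent effect for the one-nucleolus and 5+ nucleoli phenotypes, normalised to siNT (0%) and to the positive controls siNOL11 or siKIF11 (100%), as the mean of biological triplicates. Percent viability is the nuclei count relative to siNT.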

Sequence | percent viability [%]
UUACACACAACUGAGGAUCAUA [hsa-miR-3941] | 16.8
AAUCCCAAUGCUAGACCCGGUG [hsa-miR-4733-5p] | 19.5
AGAGGCUUUGUGCGGAUACGGGG [hsa-miR-3188] | 29.7
AAUGAGAGACCUGUACUGUAU [hsa-miR-4712-3p] | 7.13
UUGGAAUAGGGGAUAUCUCAGC [hsa-miR-6505-5p] | 36.9
UAAUUGCUUCCAUGUUU [hsa-miR-302f] | 65.5
GCUUCUGUAGUGUAGUC [hsa-miR-3182] | 57
UGAGUUGGCCAUCUGAGUGAG [hsa-miR-571] | 84.6
UGGGGAGCUGAGGCUCUGGGGGUG [hsa-miR-939-5p] | 82.5
CUGGGGAGUGGCUGGGGAG [hsa-miR-6763-5p] | 29.7
UGGGGGUGGUCUCUAGCCAAGG [hsa-miR-6842-5p] | 9.46
UACAGUAUAGAUGAUGUACU [hsa-miR-144-3p] | 119
CCAAACCAGUCGUGCCUGUGG [hsa-miR-6715a-3p] | 40.8
CAGGGUCAGCUGAGCAUG [hsa-miR-1178-5p] | 51.5
CACUUAGCAGGUUGUAUUAUAU [hsa-miR-374c-3p] | 50.7
UGCGGGGACAGGCCAGGGCAUC [hsa-miR-4749-5p] | 21.9
UAGUAGACCGUAUAGCGUACG [hsa-miR-411-5p] | 69.2
UCCAUGUUUCCUUCCCCCUUCU [hsa-miR-4716-5p] | 28.8
AGAAGUAAUUGCGGUUUUGCCA [hsa-miR-548ax] | 53.4
UAUUGCACAUUACUAAGUUGCA [hsa-miR-32-5p] | 123

Sequence | percent viability [%]
GGCUACAACACAGGACCCGGGC [hsa-miR-187-5p] | 136
AAAUGGGUGGUCUGAGGCAA [hsa-miR-4506] | 46.9
AAAAGUAUUUGCGGGUUUUGUC [hsa-miR-548l] | 127
UGCCUUCCUGUCUGUG [hsa-miR-4297] | 20.9
GGGAUAUGAAGAAAAAU [hsa-miR-3201] | 59.6
ACAUCGCCCCACCUUCCCCAG [hsa-miR-6785-3p] | 102
UACGUCAUCGUUGUCAUCGUCA [hsa-miR-598] | 151
CCUCUCCUCCCUGUGCCCCAG [hsa-miR-6845-3p] | 60.1
UGAGGUAGUAGAUUGUAUAGUU [hsa-let-7f-5p] | 123
UCAGGCUCAGUCCCCUCCCGAU [hsa-miR-484] | 97
CUGGGUGAGGGCAUCUGUGGU [hsa-miR-6736-5p] | 24.3
GCGGGGGUGGCGGCGGCAUCCC [hsa-miR-4787-5p] | 86.7
GCUAGUCCUGACUCAGCCAGU [hsa-miR-554] | 67.7
CUGUACAGCCUCCUAGCUUUCC [hsa-let-7a-2-3p] | 43.3
UGGGAGAGAGGACUGUGAGGC [hsa-miR-8085] | 12.6
GAGCUUAUUCAUAAAAGUGCAG [hsa-miR-590-5p] | 66.5
AGCUUCCAUGACUCCUGAUGGA [hsa-miR-2115-5p] | 137
CAAUUUAGUGUGUGUGAUAUUU [hsa-miR-32-3p] | 80.6
UGCCGCCCUCUCGCUGCUCUAG [hsa-miR-4632-3p] | 64.2
UGCUGGAUCAGUGGUUCGAGUC [hsa-miR-1287] | 25.2

Sequence | percent viability [%]
CUAUACAGUCUACUGUCUUUCC [hsa-let-7f-2-3p] | 70.8
GGGUGCGGGCCGGCGGGG [hsa-miR-4466] | 51.3
AAUGUGGAAGUGGUCUGAGGCAU [hsa-miR-4657] | 30.7
UCUCCCUUCCUGCCCUGGCUAG [hsa-miR-4685-3p] | 98.4
AAGCAAUACUGUUACCUGAAAU [hsa-miR-3942-5p] | 36.6
GGGACCCAGGGAGAGACGUAAG [hsa-miR-711] | 80.1
ACUGAUUAUCUUAACUCUCUGA [hsa-miR-3920] | 82
UGGUUUACCGUCCCACAUACAU [hsa-miR-299-5p] | 27.9
UUCUCGAGGAAAGAAGCACUUUC [hsa-miR-516a-5p] | 127
CGGGGGCGGGGCCGAAGCGCG [hsa-miR-1237-5p] | 85.4
AUCUGCCAGCUUCCACAGUGG [hsa-miR-4727-5p] | 42.4
ACCGUGCAAAGGUAGCAUA [hsa-miR-1973] | 119
UCCAGUACAGGUCUCUCAUUUC [hsa-miR-4712-5p] | 81.3
UUUAAGCAGGAAAUAGAAUUUA [hsa-miR-4503] | 100
AAUCCUUGGAACCUAGGUGUGAGU [hsa-miR-362-5p] | 36.6
AUGGGGUGAGAUGGGGAGGAGCAGC [hsa-miR-6812-5p] | 23.7
CAAUGUUUCCACAGUGCAUCAC [hsa-miR-33a-3p] | 51.1
AAAGUUCUGAGACACUCCGACU [hsa-miR-148a-5p] | 89
AACGGCAAUGACUUUUGUACCA [hsa-miR-548al] | 58.9
ACUCAAAACCCUUCAGUGACUU [hsa-miR-616-5p] | 93.6

These sequences were tested on MCF10A (assay: one-nucleolus phenotype percent effect (relative to siNT 0% and siNOL11 100%); higher = more cells with one nucleolus (ribosome biogenesis inhibition)). Conditions: 20 nM; 72 h.
Procedure: as §1

Sequence | one-nucleolus phenotype percent effect [%]
UUACACACAACUGAGGAUCAUA [hsa-miR-3941] | 7.76
AAUCCCAAUGCUAGACCCGGUG [hsa-miR-4733-5p] | 2.5
AGAGGCUUUGUGCGGAUACGGGG [hsa-miR-3188] | 33.1
AAUGAGAGACCUGUACUGUAU [hsa-miR-4712-3p] | 34.8
UUGGAAUAGGGGAUAUCUCAGC [hsa-miR-6505-5p] | 29.1
UAAUUGCUUCCAUGUUU [hsa-miR-302f] | 22.1
GCUUCUGUAGUGUAGUC [hsa-miR-3182] | -17.1
UGAGUUGGCCAUCUGAGUGAG [hsa-miR-571] | -7.45
UGGGGAGCUGAGGCUCUGGGGGUG [hsa-miR-939-5p] | -7.29
CUGGGGAGUGGCUGGGGAG [hsa-miR-6763-5p] | 30.5
UGGGGGUGGUCUCUAGCCAAGG [hsa-miR-6842-5p] | -7.28
UACAGUAUAGAUGAUGUACU [hsa-miR-144-3p] | -2.3
CCAAACCAGUCGUGCCUGUGG [hsa-miR-6715a-3p] | 24.3
CAGGGUCAGCUGAGCAUG [hsa-miR-1178-5p] | 9.85
CACUUAGCAGGUUGUAUUAUAU [hsa-miR-374c-3p] | 0.51
UGCGGGGACAGGCCAGGGCAUC [hsa-miR-4749-5p] | 50.5
UAGUAGACCGUAUAGCGUACG [hsa-miR-411-5p] | -6.18
UCCAUGUUUCCUUCCCCCUUCU [hsa-miR-4716-5p] | 45.4
AGAAGUAAUUGCGGUUUUGCCA [hsa-miR-548ax] | 4.38
UAUUGCACAUUACUAAGUUGCA [hsa-miR-32-5p] | -7.37
GGCUACAACACAGGACCCGGGC [hsa-miR-187-5p] | -18.2
AAAUGGGUGGUCUGAGGCAA [hsa-miR-4506] | 36.1
AAAAGUAUUUGCGGGUUUUGUC [hsa-miR-548l] | -20.8
UGCCUUCCUGUCUGUG [hsa-miR-4297] | 16.6
GGGAUAUGAAGAAAAAU [hsa-miR-3201] | -15.6
ACAUCGCCCCACCUUCCCCAG [hsa-miR-6785-3p] | -34.4
UACGUCAUCGUUGUCAUCGUCA [hsa-miR-598] | -26.8
CCUCUCCUCCCUGUGCCCCAG [hsa-miR-6845-3p] | -13.8
UGAGGUAGUAGAUUGUAUAGUU [hsa-let-7f-5p] | -20.6
UCAGGCUCAGUCCCCUCCCGAU [hsa-miR-484] | -7.07
